Source: PMC3885427, “NPPB and ACAN, Two Novel SHOX2 Transcription Targets Implicated in Skeletal Development” (PLoS ONE, 2014)

How the values were obtained:
Test in all cases: two-hybrid; S. cerevisiae Y187 cotransformed with pGBT9 (GAL4 binding domain) and pACT2 (GAL4 activation domain) fusions; β-galactosidase liquid assay with CRPG as substrate; fragments and mutants given as percent of full-length or wild-type protein; empty vectors as negative controls
Conditions in all cases: partners not purified
[1] = molecular target: T1, SHOX(1–211), yeast two-hybrid fusion (human, UniProt O15266 1-211)
T1 construct: SHOXa, human, residues 1-211; source: yeast two-hybrid fusion (S. cerevisiae Y187)
T1 sequence (O15266 1-211): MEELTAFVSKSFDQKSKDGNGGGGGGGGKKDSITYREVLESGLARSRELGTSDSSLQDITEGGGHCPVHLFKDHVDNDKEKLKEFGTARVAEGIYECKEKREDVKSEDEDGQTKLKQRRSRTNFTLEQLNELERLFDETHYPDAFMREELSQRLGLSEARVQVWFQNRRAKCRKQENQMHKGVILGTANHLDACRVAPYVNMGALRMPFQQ

[2] = molecular target: T2, SHOX(178–292), yeast two-hybrid fusion (human, UniProt O15266 178-292)
T2 construct: SHOXa, human, residues 178-292; source: yeast two-hybrid fusion (S. cerevisiae Y187)
T2 sequence (looked up): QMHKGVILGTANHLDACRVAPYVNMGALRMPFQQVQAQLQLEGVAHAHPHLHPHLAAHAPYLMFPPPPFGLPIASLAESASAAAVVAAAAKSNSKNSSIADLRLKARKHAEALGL

[3] = molecular target: T3, SHOX(117–292), yeast two-hybrid fusion (human, UniProt O15266 117-292)
T3 construct: SHOXa, human, residues 117-292; source: yeast two-hybrid fusion (S. cerevisiae Y187)

[4] = molecular target: T4, SHOX(117–274), yeast two-hybrid fusion (human, UniProt O15266 117-274)
T4 construct: SHOXa, human, residues 117-274; source: yeast two-hybrid fusion (S. cerevisiae Y187)
T4 sequence (O15266 117-274): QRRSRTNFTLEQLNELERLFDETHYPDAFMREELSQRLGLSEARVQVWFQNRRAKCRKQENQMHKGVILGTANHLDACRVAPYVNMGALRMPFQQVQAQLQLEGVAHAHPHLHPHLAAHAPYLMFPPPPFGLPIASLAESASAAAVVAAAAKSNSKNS

Measured: β-galactosidase units as percent of full-length SHOX

B1: SHOX2a (called SHOX2 in the paper), full-length, yeast two-hybrid fusion (natural protein)
chain: not shown
notes: SHOX2a (short stature homeobox 2, isoform a), human; full-length cDNA NM_006884.3 made from IMAGE SHOX2 clone 4122010 by removing a 70 bp region; also called wild-type SHOX2; full-length SHOX2; source: yeast two-hybrid fusion (S. cerevisiae Y187)
< 50 % of the wildtype: all assays above
